Biological target: T1, Spx with N-terminal His6 tag (S. aureus, UniProt P60379 1-131)
T1 sequence (looked up): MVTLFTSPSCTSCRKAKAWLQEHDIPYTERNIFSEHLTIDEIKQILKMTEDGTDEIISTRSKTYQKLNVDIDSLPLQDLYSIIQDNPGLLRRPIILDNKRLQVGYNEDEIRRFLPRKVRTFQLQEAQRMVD
Assay: native gel or EMSA

B1: αCTD (residues 245 to 314 of the RNA polymerase α subunit RpoA) (domain or fragment, S. aureus, UniProt Q2FW32 245-314, looked up)
chain: KEKVLEMSIEELDLSVRSYNCLKRAGINSVQELADKSEADMMKVRNLGRKSLEEVKYKLEDLGLGLRKED
B1: binds.

From publication PMC6703946 (Molecular microbiology, 2019)
